Measured values reported in PMC3670040, “Structure of Lipid Kinase p110β/p85β Elucidates an Unusual SH2-Domain-Mediated Inhibitory Mechanism” (Molecular Cell, 2011).
Where two headings read alike, the source gives them in different places.

Columns and labels:
[1] = molecular target: T1, p110β (Mus musculus, UniProt Q8BTI9); experiment: Transcreener ADP formation (fluorescence polarization), diC8-PIP2/POPS liposomes, mouse p110β complexes; type: biochemical; conditions: Figure 5B
T1 construct: Mouse His6-p110β(1-1064)/p85β-icSH2(423-722) complex; made in house; host or cells: Sf9 insect cells (baculovirus co-infection)
Method: (§1) Figure 1 Inhibition of p110β by p85-Type Regulatory Subunits and Activation of the Complexes by RTK Phosphopeptide (A) Domain organization of p110β and the regulatory subunits p85α, p85β, and p55γ. The color scheme for the domains is used for all figures, unless otherwise stated. […] The inhibition is released upon addition of the 10 μM PDGFR pY2. […] The y axis is expressed as a change in fluorescence polarization (ΔmP), which is obtained by subtracting the observed polarization for the construct at a given enzyme concentration from the maximum fluorescence polarization for that construct. The plateau in these assays arises due to the competitive nature of the ADP detection system, based on displacement of ADP-Alexa 633 tracer from the ADP^2-antibody by ADP generated during the PI3K assay (see Supplemental Experimental Procedures). All measurements were done in triplicates, and the error bars indicate the standard error of the mean (SEM). (C) Kinase activity of p110β/p85β complexes with monomeric substrate (75 μM diC8-PIP2) in the presence and absence of pY2; y axis as in (B). (D) Basal- and pY2-stimulated activities of 35 nM PI3K complexes in the absence of lipids (ATP hydrolysis). Activities are given as percent of ATP converted to ADP using the Transcreener assay. Bars indicate SEM. TEXT PRINTED IN THE PICTURE: (B) p110β/nic: EC50 (nM): 15 | (B) p110β/nic+pY2: EC50 (nM): 0.14 | (B) p110β/ic: EC50 (nM): 1 | (B) p110β/ic+pY2: EC50 (nM): 0.21 | (B) p110β/ni: EC50 (nM): 0.84 | (B) p110β/ni+pY2: EC50 (nM): 0.24 | (B) p110β/i: EC50 (nM): 0.12 | (B) p110β/i+pY2: EC50 (nM): 0.14 | (B) ΔABD-p110β: EC50 (nM): 0.06 | (B) ΔABD-p110β+pY2: EC50 (nM): 0.05 | (C) p110β/nic: EC50 (nM): 24 | (C) p110β/nic+pY2: EC50 (nM): 3 | (C) p110β/ic: EC50 (nM): 5 | (C) p110β/ic+pY2: EC50 (nM): 2 | (C) p110β/ni: EC50 (nM): 4 | (C) p110β/ni+pY2: EC50 (nM): 2 […]
(§2) Figure 3 Mutation Y677A in p85β-cSH2 Releases Inhibitory Effect on p110β (A) Kinase activity (ADP formation) of p110β in a complex with p85β-icSH2-Y677A (Y677A-ic) compared to the wild-type complex (ic) in the absence and presence of 10 μM PDGFR pY2 (ADP formation on the y axis expressed as in Figure 1B). (B) Comparison of p110β activities of 1 nM complexes with wild-type or Y677 mutant nicSH2 or icSH2 (activity shown as in Figure 1D). TEXT PRINTED IN THE PICTURE: (A) p110β/ic: EC50 (nM): 1 | (A) p110β/ic+pY2: EC50 (nM): 0.15 | (A) p110β/ic-Y677A: EC50 (nM): 0.11 | (A) p110β/ic-Y677A+pY2: EC50 (nM): 0.08 […]
(§3) The lipid kinase activity was determined using the Transcreener ADP2 FP Assay (BellBrook Labs, Madison, WI) according to manufacturer‟s specifications. This non-radioactive assay measures activity by quantitating the amount of ADP formed. The ADP formed by PI3K competes with fluorescent ADP tracer for binding to an anti-ADP antibody, thereby decreasing fluorescence polarization. Because of the competitive nature of this assay, the change in fluorescence polarization signal is not a linear function of enzyme activity, and a convenient measure of enzyme activity is the EC50, or the concentration of enzyme necessary to give half-maximal inhibition of labeled ADP binding to the antibody, for a given concentration of substrate and a fixed time of reaction at initial rate. While activity of two different enzyme constructs can be compared at a fixed concentration of protein and a fixed concentration of substrate, the assay is most reliable when about 2%-10% of the ATP is […]
(§4) Consequently, the EC50 provides a convenient way to compare the activities of various constructs. Briefly, reactions were performed in 10 μl volume in 384-well black plates (Corning 3676) and they contained final 100 μM ATP, 75 μM lipids and a series of protein concentration varying from 0.001 nM to 2.5 μM. Serial dilutions of protein heterodimers were prepared in buffer F (50 mM Hepes pH 7.5, 100 mM NaCl, 0.03% CHAPS, 4 mM DTT) in 5 μl […]
volume. […]

[2] = test system: p110β; experiment: as above; type: biochemical; conditions: Figure 5B, C-terminal truncation vs wild-type, diC8-PIP2/POPS, 100 μM ATP, 1 h, room temperature
Method: as §1, §2, §3, §4
volume. […]

T1 sequence (Q8BTI9 1-1047): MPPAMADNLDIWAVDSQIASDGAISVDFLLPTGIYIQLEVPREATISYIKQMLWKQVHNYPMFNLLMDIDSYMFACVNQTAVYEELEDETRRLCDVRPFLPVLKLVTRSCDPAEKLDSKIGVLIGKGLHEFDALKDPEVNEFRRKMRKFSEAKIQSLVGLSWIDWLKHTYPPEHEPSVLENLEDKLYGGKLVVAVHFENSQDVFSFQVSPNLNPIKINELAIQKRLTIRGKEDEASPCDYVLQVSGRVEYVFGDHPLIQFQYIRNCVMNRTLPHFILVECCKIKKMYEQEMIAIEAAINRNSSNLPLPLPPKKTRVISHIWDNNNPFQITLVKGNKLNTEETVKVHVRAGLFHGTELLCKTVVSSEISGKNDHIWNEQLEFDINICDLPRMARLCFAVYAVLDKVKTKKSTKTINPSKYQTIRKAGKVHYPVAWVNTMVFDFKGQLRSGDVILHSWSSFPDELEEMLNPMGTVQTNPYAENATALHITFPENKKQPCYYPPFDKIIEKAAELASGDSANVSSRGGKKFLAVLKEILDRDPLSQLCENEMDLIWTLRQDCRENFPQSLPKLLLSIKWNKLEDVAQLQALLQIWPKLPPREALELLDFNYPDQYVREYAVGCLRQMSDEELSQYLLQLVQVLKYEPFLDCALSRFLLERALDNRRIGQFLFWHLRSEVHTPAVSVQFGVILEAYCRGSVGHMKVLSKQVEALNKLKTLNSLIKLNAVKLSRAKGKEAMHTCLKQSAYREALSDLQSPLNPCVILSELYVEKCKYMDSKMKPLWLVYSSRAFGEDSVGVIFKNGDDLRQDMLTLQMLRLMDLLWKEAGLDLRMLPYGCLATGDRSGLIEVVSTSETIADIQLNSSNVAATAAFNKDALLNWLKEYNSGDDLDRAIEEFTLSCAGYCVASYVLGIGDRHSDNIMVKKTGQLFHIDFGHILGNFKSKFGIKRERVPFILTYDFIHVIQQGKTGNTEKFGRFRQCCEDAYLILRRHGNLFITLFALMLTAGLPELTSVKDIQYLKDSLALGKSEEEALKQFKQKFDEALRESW
T1 sequence (O08908 318-722 partner): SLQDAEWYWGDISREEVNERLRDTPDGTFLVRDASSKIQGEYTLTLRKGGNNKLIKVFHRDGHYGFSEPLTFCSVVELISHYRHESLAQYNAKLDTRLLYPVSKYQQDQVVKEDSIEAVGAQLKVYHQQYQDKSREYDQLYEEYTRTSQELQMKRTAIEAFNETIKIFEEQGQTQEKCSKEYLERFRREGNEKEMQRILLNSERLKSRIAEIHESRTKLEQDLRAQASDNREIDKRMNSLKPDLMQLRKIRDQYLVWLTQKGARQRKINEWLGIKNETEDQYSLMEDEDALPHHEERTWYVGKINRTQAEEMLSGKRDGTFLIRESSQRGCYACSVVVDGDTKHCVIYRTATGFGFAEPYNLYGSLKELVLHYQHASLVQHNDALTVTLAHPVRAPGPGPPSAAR

basal activity with diC8-PIP2/POPS [1]: very low basal activity
EC50 ([2]; absence of pY2, read-out: EC50 (enzyme concentration), lipid kinase activity, basal): 38 nM
EC50 ([2]; with 10 μM PDGFR pY2, read-out: EC50 (enzyme concentration), lipid kinase activity, + pY2): 57 nM
B1: p110β-ΔCter/nic: truncation mutant lacking 17 residues from the p110β C terminus; human ΔCter (1-1053) used in cells (protein, UniProt P42338 1-1053, looked up, fragment)
chain: MCFSFIMPPAMADILDIWAVDSQIASDGSIPVDFLLPTGIYIQLEVPREATISYIKQMLWKQVHNYPMFNLLMDIDSYMFACVNQTAVYEELEDETRRLCDVRPFLPVLKLVTRSCDPGEKLDSKIGVLIGKGLHEFDSLKDPEVNEFRRKMRKFSEEKILSLVGLSWMDWLKQTYPPEHEPSIPENLEDKLYGGKLIVAVHFENCQDVFSFQVSPNMNPIKVNELAIQKRLTIHGKEDEVSPYDYVLQVSGRVEYVFGDHPLIQFQYIRNCVMNRALPHFILVECCKIKKMYEQEMIAIEAAINRNSSNLPLPLPPKKTRIISHVWENNNPFQIVLVKGNKLNTEETVKVHVRAGLFHGTELLCKTIVSSEVSGKNDHIWNEPLEFDINICDLPRMARLCFAVYAVLDKVKTKKSTKTINPSKYQTIRKAGKVHYPVAWVNTMVFDFKGQLRTGDIILHSWSSFPDELEEMLNPMGTVQTNPYTENATALHVKFPENKKQPYYYPPFDKIIEKAAEIASSDSANVSSRGGKKFLPVLKEILDRDPLSQLCENEMDLIWTLRQDCREIFPQSLPKLLLSIKWNKLEDVAQLQALLQIWPKLPPREALELLDFNYPDQYVREYAVGCLRQMSDEELSQYLLQLVQVLKYEPFLDCALSRFLLERALGNRRIGQFLFWHLRSEVHIPAVSVQFGVILEAYCRGSVGHMKVLSKQVEALNKLKTLNSLIKLNAVKLNRAKGKEAMHTCLKQSAYREALSDLQSPLNPCVILSELYVEKCKYMDSKMKPLWLVYNNKVFGEDSVGVIFKNGDDLRQDMLTLQMLRLMDLLWKEAGLDLRMLPYGCLATGDRSGLIEVVSTSETIADIQLNSSNVAAAAAFNKDALLNWLKEYNSGDDLDRAIEEFTLSCAGYCVASYVLGIGDRHSDNIMVKKTGQLFHIDFGHILGNFKSKFGIKRERVPFILTYDFIHVIQQGKTGNTEKFGRFRQCCEDAYLILRRHGNLFITLFALMLTAGLPELTSVKDIQYLKDSLALGKSEEEALKQFKQKFDEALRESW
